Where “and” joins values, the source holds several entries; their conditions need not be identical. Equal values may be shown once.
Target: the molecule itself
Assay: mass photometry

B1: murine PARP2 (poly(ADP-ribose) polymerase 2) (enzyme)
chain: MAPRRQRSGSGRRVLNEAKKVDNGNKATEDDSPPGKKMRTCQRKGPMAGGKDADRTKDNRDSVKTLLLKGKAPVDPECAAKLGKAHVYCEGDDVYDVMLNQTNLQFNNNKYYLIQLLEDDAQRNFSVWMRWGRVGKTGQHSLVTCSGDLNKAKEIFQKKFLDKTKNNWEDRENFEKVPGKYDMLQMDYAASTQDESKTKEEETLKPESQLDLRVQELLKLICNVQTMEEMMIEMKYDTKRAPLGKLTVAQIKAGYQSLKKIEDCIRAGQHGRALVEACNEFYTRIPHDFGLSIPPVIRTEKELSDKVKLLEALGDIEIALKLVKSERQGLEHPLDQHYRNLHCALRPLDHESNEFKVISQYLQSTHAPTHKDYTMTLLDVFEVEKEGEKEAFREDLPNRMLLWHGSRLSNWVGILSHGLRVAPPEAPITGYMFGKGIYFADMSSKSANYCFASRLKNTGLLLLSEVALGQCNELLEANPKAQGLLRGKHSTKGMGKMAPSPAHFITLNGSTVPLGPASDTGILNPEGYTLNYNEFIVYSPNQVRMRYLLKIQFNFLQLW
stoichiometry N: 2 and 3

Source: article PMC12412786 (Nucleic Acids Research, 2025)
